Test results as given in PMC4627802, “Fine Mapping of the Interaction between C4b-Binding Protein and Outer Membrane Proteins LigA and LigB of Pathogenic Leptospira interrogans” (PLoS Neglected Tropical Diseases, 2015).

How the values were obtained:
[1] = target: LigBC (fragment of leptospiral immunoglobulin-like protein B, residues 631-1156) (L. interrogans); experiment: ELISA; LigA, LigB or LcpA immobilised; commercial C4BP in 10 mM Na2HPO4, 1.8 mM KH2PO4 with NaCl 0 to 600 mM; detected with polyclonal rabbit anti-C4BP; binding without NaCl set as 100%
LcpA (L. interrogans) = experiment: as above
[2] = target: LigA10-11 (L. interrogans); experiment: ELISA; Lig tandem-domain constructs immobilised; 1 μg of C4BP mixed with heparin (0-10 mg/ml); detected with mouse monoclonal anti-C4BP α/β chains; binding without heparin set as 100%
LigB7-8 (L. interrogans) = experiment: as above
[3] = target: LigB9-10 (L. interrogans); experiment: as above
[4] = target: Human purified C4BP (α7β1) (human) (UniProt P04003); experiment: ELISA; increasing concentrations of Lig proteins with a fixed amount of C4BP (1 μg); Kd estimated by nonlinear regression, Y = Bmax*X/(Kd + X)
[5] = target: T1, Human purified C4BP (α7β1) (human, UniProt P04003 49-597; P20851 18-252); experiment: as above; conditions: both partners purified
T1 construct: also called C4BP WT (commercial); source: bought: Complement Technology (Texas, USA), human purified; copies: 7 + 1
T1 sequence 1: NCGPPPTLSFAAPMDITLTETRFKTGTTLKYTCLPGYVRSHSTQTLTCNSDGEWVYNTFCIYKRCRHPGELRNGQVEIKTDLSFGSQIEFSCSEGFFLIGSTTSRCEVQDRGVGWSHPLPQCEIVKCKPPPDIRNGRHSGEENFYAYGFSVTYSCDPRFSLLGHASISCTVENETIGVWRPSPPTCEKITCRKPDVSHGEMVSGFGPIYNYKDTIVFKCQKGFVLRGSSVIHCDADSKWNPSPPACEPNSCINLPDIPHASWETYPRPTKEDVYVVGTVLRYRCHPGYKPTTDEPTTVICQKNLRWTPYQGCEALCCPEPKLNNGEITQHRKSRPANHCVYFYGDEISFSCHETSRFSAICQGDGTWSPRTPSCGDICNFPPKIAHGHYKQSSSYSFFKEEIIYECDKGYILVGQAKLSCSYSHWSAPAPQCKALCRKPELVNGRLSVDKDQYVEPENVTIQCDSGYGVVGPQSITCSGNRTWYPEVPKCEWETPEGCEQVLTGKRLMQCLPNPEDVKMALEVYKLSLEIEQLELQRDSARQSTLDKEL
T1 sequence 2: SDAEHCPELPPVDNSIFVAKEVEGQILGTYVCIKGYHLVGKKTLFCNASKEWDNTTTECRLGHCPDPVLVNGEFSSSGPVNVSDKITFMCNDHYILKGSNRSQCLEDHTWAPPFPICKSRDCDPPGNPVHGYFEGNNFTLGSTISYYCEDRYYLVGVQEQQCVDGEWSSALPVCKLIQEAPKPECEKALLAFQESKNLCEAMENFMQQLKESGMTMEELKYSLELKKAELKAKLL

Molecule “Human purified C4BP (α7β1) (from UniProt P04003 49-597; P20851 18-252) (complex)” has a percent decrease of binding at 150 mM NaCl [1] of 45%, a percent decrease of binding at 150 mM NaCl (LcpA (L. interrogans)) of 30% and a percent reduction of binding with 10 mg/ml heparin [2] of 35%. It also gave a percent reduction of binding with 10 mg/ml heparin (LigB7-8 (L. interrogans)) of 45% and a percent reduction of binding with 10 mg/ml heparin [3] of 27%.

“LigBC (fragment of leptospiral immunoglobulin-like protein B, residues 631-1156) (domain or fragment)” showed a Kd [4] of 51.6 nM.

B1: LigAC (C-terminal fragment of leptospiral immunoglobulin-like protein A, residues 631-1225) (domain or fragment)
chain: LTVSNTNAKRGLGSTLKQGTVKVTASMGGIEDSVDFTVTQATLTSIEVSPTRASIAKGMTQKFTATGIFTDHSKKNITEQVTWKSSSKALSMLNAPGEEGTGKAIAVGKTTITATLEKLSGKTDITVTPAVLTSIQISPVKHSLVKGLTEKFSATGIYSDNSNKDITSSVTWHSSNNSVATISNTKGYQGQAYGTGTGTVNIKATLGNVSSQVSKLSVTAAELTEIVLNPTSSHKAKGLTENFKATGVFTDNSTKDITDQVTWKSSNAAYAKISNATGSKGVVNALSKGTSHISATLGSISSANATFQVTPARIASIEVTPNNFFLIKGLSHPFKAIGIYTDNTKTDITKQVSWSSSDPNVASIDNTFSLAGSATAIDDGKTNITATLSDSMSASTTLYVTSAVLIDIEVKPSIFVLSEGLTLQLTATGIYSDHSTHDLTQVVQWTSSKPSNIAIENTAGKKGKVTALAFGDSEFTATYDSIKSNRAWIFVNDEKLVNITISSSQVLTDKGSAQQFKAIGTFQGGSQLDLTDLVTWKSSDSKVVSISNSNDDRGLTTALSVGSSKISAIYGSIHSDSIDFEVTPEILASIKTEP
B1 was tested, and the Kd [5] was 88.8 ± 7.8 nM.
